US20140120109A1 (Regeneron, published 2014)

T1: cynomolgus monkey TL1A, soluble, E. coli-expressed, residues 72-251 of SEQ ID NO:248 (cynomolgus monkey (Macaca fascicularis), UniProt O95150 72-251 (human entry))
T1 construct: with or without N-terminal Met; also called MfTL1A (E. Coli)
T1 chain: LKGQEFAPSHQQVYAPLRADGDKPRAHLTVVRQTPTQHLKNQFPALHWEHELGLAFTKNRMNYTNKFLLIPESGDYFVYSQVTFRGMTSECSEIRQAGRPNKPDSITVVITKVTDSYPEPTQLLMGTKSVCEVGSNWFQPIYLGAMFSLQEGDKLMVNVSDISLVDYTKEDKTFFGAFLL

T2: cynomolgus monkey TL1A, soluble, CHO-expressed, residues 72-251 of SEQ ID NO:248 with N-terminal His6-tag (cynomolgus monkey (Macaca fascicularis), UniProt O95150 72-251 (human entry))
T2 construct: also called MfTL1A; MfTL1A (CHO)
T2 chain: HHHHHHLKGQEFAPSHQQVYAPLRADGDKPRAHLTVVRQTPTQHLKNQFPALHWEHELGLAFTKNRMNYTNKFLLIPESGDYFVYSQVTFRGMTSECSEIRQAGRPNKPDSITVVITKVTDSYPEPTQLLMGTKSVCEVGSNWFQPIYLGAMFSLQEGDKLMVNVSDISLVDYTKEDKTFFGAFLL

T3: Fhm, hTL1A(Q167R), soluble, E. coli-expressed, residues 72-251 of SEQ ID NO:246 (human, UniProt O95150 72-251)
T3 construct: with or without N-terminal Met
T3 chain: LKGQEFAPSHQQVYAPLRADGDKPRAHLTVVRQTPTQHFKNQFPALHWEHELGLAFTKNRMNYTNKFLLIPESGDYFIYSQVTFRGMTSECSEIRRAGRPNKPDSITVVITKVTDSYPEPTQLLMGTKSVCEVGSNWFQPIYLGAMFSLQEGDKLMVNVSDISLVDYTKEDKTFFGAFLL

T4: mouse TL1A, soluble, CHO-expressed, residues 76-252 of SEQ ID NO:250 with N-terminal His6-tag (mouse, UniProt Q5UBV8 76-252)
T4 construct: also called mTL1A; mTL1A (CHO)
T4 sequence: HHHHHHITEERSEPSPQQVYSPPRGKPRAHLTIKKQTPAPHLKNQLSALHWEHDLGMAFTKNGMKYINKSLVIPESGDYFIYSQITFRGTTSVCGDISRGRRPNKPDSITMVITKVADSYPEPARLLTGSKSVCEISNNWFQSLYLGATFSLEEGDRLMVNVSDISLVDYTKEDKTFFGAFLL

T5: rat TL1A, soluble, CHO-expressed, residues 76-252 of SEQ ID NO:258 with N-terminal His6-tag (rat, UniProt Q8K3Y7 76-252)
T5 construct: also called rTL1A; rTL1A (CHO)
T5 sequence: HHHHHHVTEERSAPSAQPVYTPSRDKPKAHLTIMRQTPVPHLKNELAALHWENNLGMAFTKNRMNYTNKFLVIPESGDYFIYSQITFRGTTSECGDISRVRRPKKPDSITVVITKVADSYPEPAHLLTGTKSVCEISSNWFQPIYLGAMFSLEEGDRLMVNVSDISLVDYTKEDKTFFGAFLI

T6: human TL1A, soluble, CHO-expressed, residues 72-251 of SEQ ID NO:244 with N-terminal His6-tag (human, UniProt O95150 72-251)
T6 construct: also called hTL1A; hTL1A (CHO)
T6 sequence: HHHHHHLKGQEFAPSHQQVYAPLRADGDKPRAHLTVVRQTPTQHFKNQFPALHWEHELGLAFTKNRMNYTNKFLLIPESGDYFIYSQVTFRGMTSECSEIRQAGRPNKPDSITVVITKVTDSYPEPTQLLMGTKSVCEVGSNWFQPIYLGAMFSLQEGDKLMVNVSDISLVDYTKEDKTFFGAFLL

T7: mouse TL1A, soluble, E. coli-expressed, residues 76-252 of SEQ ID NO:250 (mouse, UniProt Q5UBV8 76-252)
T7 construct: with or without N-terminal Met; also called mTL1A (E. Coli)
T7 sequence: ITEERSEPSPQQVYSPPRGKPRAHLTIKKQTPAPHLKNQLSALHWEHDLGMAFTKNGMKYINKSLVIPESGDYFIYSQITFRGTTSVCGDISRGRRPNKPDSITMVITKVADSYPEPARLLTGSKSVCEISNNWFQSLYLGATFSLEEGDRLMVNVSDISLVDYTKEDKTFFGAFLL

T8: Fhm, hTL1A(Q167R), soluble, CHO-expressed, residues 72-251 of SEQ ID NO:246 (human, UniProt O95150 72-251)
T8 chain: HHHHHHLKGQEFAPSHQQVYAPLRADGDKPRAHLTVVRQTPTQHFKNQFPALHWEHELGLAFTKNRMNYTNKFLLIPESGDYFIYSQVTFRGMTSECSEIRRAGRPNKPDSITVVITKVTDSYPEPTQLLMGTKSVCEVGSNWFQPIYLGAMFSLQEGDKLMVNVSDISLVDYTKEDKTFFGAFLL


Legend:
[1] = biological target: T1, cynomolgus monkey TL1A, soluble, E. …; test: SPR 37C, mAb captured
Summary of the method: (§1)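 Biacore T100 SPR with captured mAb and soluble TL1A/Fhm analyte; ka and kd fitted to a 1:1 model assuming monomeric TL1A. KD = kd/ka; t1/2 (min) = ln2/(60·kd).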

[2] = biological target: T2, cynomolgus monkey TL1A, soluble, …; test: SPR 37C, mAb captured
Summary of the method: as §1

[3] = biological target: T3, Fhm, hTL1A(Q167R), soluble, E. …; test: SPR 37C, mAb captured
Summary of the method: as §1

[4] = biological target: T4, mouse TL1A, soluble, CHO-expressed, …; test: SPR 37C, mAb captured
Summary of the method: as §1

[5] = biological target: T5, rat TL1A, soluble, CHO-expressed, …; test: SPR 37C, mAb captured
Summary of the method: as §1

[6] = biological target: T6, human TL1A, soluble, CHO-expressed, …; test: SPR 37C, mAb captured
Summary of the method: as §1

[7] = biological target: T7, mouse TL1A, soluble, E. coli-expressed, …; test: SPR 25C, steady state
Summary of the method: as §1

[8] = biological target: T8, Fhm, hTL1A(Q167R), soluble, …; test: cell-based or functional assay
[9] = biological target: T5, rat TL1A, soluble, CHO-expressed, …; test: cell-based or functional assay

Row | Binder | Kd [1] [pM] | t1/2 [1] [h] | Kd [2] [pM] | t1/2 [2] [h] | Kd [3] [pM] | t1/2 [3] [h] | binding result [4] | Kd [5] [pM] | t1/2 [5] [h] | Kd [6] [pM] | t1/2 [6] [h] | binding result [7] | IC50, NFkB-luciferase reporter [8] [pM] | IC50, NFkB-luciferase reporter [9] [pM]
1 | H4H1745P (antibody, human IgG4 S228P, V domains shown) VH: EVQLVESGGGLVQPGGSLRLSCAASGFTFSSYAMTWVRQAPGKGLEWVSGVSGRGGSTYYADSVKGRFTISRDNSKNTLYLQMNSLRAEDTAVYYCAYWDISSFDYWGQGTLVTVSS VL: DIQLTQSPSFLSASVGDRVTITCWASQGISTYLAWYQQKPGKTPKLLIYAASTLQSGVPSRFSGSGSGTDFTLTISSLQPEDFATYYCQQFNSYPLTFGGGTKVEIK | 281 | 1.23 | 173 | 2.07 | 207 | 1.18 | no binding (tested: up to 100 nM) | 16500 | 0.183 | 177 | 2.15 | no binding (tested: up to 100 nM) | 150 | 
2 | H4H1817N (antibody, human IgG4 S228P, V domains shown, human IgG4(S108P) form of H2M1817N) VH: QVQLQQWGAGLLKPSETLSLTCAVSGGSFSDYFWTWIRQPPGKGLEWIGEISHSGRTNYNPSLKSRVTISVDTSMSQFSLKMTSVTAADSAVYYCARDYPNWVFDYWGQGTLVTVSS VL: EIELTQSPGTLSLSPGEGATLSCRASQSVFNSYLAWYQQKPGQAPRLLIYGASRRATGIPDRFSGSGSGTDFTLTISRLEPGDFAVYFCQQYGNSPLTFGGGTKVEIK |  |  | 25.6 | 19.2 |  |  |  | 1600 | 0.433 | 27.8 | 18.3 |  | 120 | 23900
3 | H4H1818N (antibody, human IgG4 S228P, V domains shown, human IgG4(S108P) form of H2M1818N) VH: RLQLVESGGGLVKPGGSLKLSCAASGFTISDYYMSWIRQAPGKGLEWVSYIGGSGSTIYYADSVKGRFTISRDNAKNSLYLQMNSLRAEDTAVYYCAREDADSYYYYGMDVWGQGTTVTVSS VL: not shown |  |  |  |  |  |  |  |  |  |  |  |  | 620 | 1100
4 | H4H1719P (antibody, human IgG4 S228P, V domains shown) VH: EVQLVESGGGLVQPGRSLRLSCVASGFTFQDYAMHWVRQAPGKGLEWVSGINWISDDMGYADSVMGRFTISRDNAKNSLYLQMDSLRAEDTALYYCAKDKGLRFLDYVMDVWGQGTTVTVSA VL: DIVMTQSPLSLPVTPGEPASISCRSTQSLLHRNGHNYLHWYLHKPGQSPQLLIHLGSNRASGVPDRFSGSGSGTDFTLKISRVEAEDVGVYYCMQALQTPYTFGQGTKLEIK | 289 | 0.667 | 2.01 | 96.4 | 174 | 0.7 | no binding (tested: up to 100 nM) | 78 | 1.43 | 7.61 | 31.9 | no binding (tested: up to 100 nM) | 80 | 
5 | H4H1805N (antibody, human IgG4 S228P, V domains shown, human IgG4(S108P) form of H2M1805N) VH: QVQLQQWGAGLLKPSETLSLTCAVYGGSFTGFYWSWIRQPPGKGLEWIGEINHRGNTNYNPSLKSRVTMSVDTSKNQFSLNMISVTAADTAMYFCASPFYDFWSGSDYWGQGTLVTVSS VL: DIMLTQTPLTSPVTLGQPASISCKSSQSLVHSDGNTYLSWLQQRPGQPPRLLFYKISNRFSGVPDRFSGSGAGTDFTLKISRVEAEDVGVYYCMQATQFPLTFGGGTKVEIK |  |  | 352 | 1.13 |  |  |  |  |  | 299 | 1.33 |  | 186000 | 
6 | H4H1750P (antibody, human IgG4 S228P, V domains shown) VH: QVQLVESGGGVVQPGRSLRLSCVASGFTFSNYGMHWVRQAPGKGLEWVAVISYDGNNDLYSDSVKGRFTISRDNAKNALSLQMTSLRAEDTAVYYCARDSTMTPYYYHGIDVWGQGTTVTVSA VL: DIQMTQSPSSLSASVGDRVTITCRASQDIRNDLGWYQQKPGKAPKRLIYAASSLQSGVPSRFSGSGSGTDFTLTISSLQPEDFATYYCLQHNSYPPTFGQGTKVEIK | 456000 | 0.0167 |  |  | 244 | 5.58 | no binding (tested: up to 100 nM) |  |  |  |  | no binding (tested: up to 100 nM) | 3100 | 

Further binders by falling Kd [2], results first:

Row | Kd [1] [pM] | t1/2 [1] [h] | Kd [2] [pM] | t1/2 [2] [h] | Kd [3] [pM] | t1/2 [3] [h] | binding result [4] | Kd [5] [pM] | t1/2 [5] [h] | Kd [6] [pM] | t1/2 [6] [h] | binding result [7] | IC50, NFkB-luciferase reporter [8] [pM] | IC50, NFkB-luciferase reporter [9] [pM] | Binder
7 | 4200 | 0.0667 | 465 | 1 | 3100 | 0.0667 | no binding (tested: up to 100 nM) |  |  | 571 | 0.85 | no binding (tested: up to 100 nM) | 330 |  | H4H1738P (antibody, human IgG4 S228P, V domains shown) VH: EVQLVESGGALVKPGGSLRLSCAVSGFTFINDWMNWVRQAPGKGLEWVGRIKSTTDGGTTDDAAPVKGRFTISRDDSKNTLYLQMNSLKTEDTAVYYCTRDRNRQRNYFYDGMDVWGQGTTVTVSA VL: DIVMTQSPVSLPVTPGEPASISCRSSQRLLHNNGNNYLDWYLQKPGQSPQLLIYLGSNRASGVPDRFSGSGSGTDFTLKVSRVEAEDVGVYYCMQALQTPYTFGQGTKLEIK
8 |  |  | 226 | 0.533 |  |  |  |  |  | 254 | 0.517 |  |  |  | H4H1681N (antibody, human IgG4 S228P, V domains shown) VH: EVQLLESGGGLVQPGKSLRLSCAVSGFTFSTYGMNWVRQAPGKGLEWVSSISGTGRTTYHADSVQGRFTVSRDNSKNILYLQMNSLRADDTAVYFCTKERGDYYYGVFDYWGQGTLVTVSS VL: DIQMTQSPSTLSASVGDRVTITCRASQTISSWLAWYQQTPEKAPKLLIYAASNLQSGVPSRFSGSGSGTEFTLTISSLQPDDFATYYCQQYHRSWTFGQGTKVEIT
9 | 1320 | 0.483 | 223 | 1.52 |  |  | no binding (tested: up to 100 nM) |  |  | 225 | 1.6 | no binding (tested: up to 100 nM) |  |  | H4H1752P (antibody, human IgG4 S228P, V domains shown) VH: EVQLVESGGGLVQPGGSLRLSCSASGFTFSKYVMTWVRQAPGKGLEWVSAIGPTGRTTEYADSVQGRFTISRDNSMNTVFLHLNSLTAEDTAEYYCAKMFDWNYDVYFDSWGQGTLVTVSS VL: DIQMTQSPSILSASVGDRVTITCRTSQSISNWLAWYQQKPGKAPNLLIYKASSLESGVPSRFSGSGSGTEFTLTISSLQPDDFATYYCQQYYRYWTFGQGTKVEIK
